Results published in article PMC9207415.

Assay: SEC; TSK gel G3000SWXL, 100 mmol/L sodium phosphate with 100 mmol/L Na2SO4 (pH 6.8), isocratic, 0.4 ml/min, 25°C, UV at 280 nm; area percentages of monomer, oligomeric and truncated forms of the antibody solution (5 g/L in 10 mmol/L potassium phosphate pH 7.0)

Substance: NMIJ RM 6208a, AIST-MAB (humanized IgG1κ monoclonal antibody reference material)
- area percentage of the monomer peak: (93.7 ± 0.2) %
